This data set addresses [2,3-3H]-L-proline-labeled procollagen substrate.

“Also recorded” adds a separate entry of the source.

B1: chicken prolyl 3-hydroxylase 1 (chicken P3H1) (protein)
chain: AGPPGPLGPPEHSEPPLPAEPPDALFAAGAEAYARGDWPAVVLQMERALRARAAIRARSVRCRLRCANATAVVPTDGLEPTLHDLLFFRGLLRRAACLRGCGPTQPSRYRLGEELEREFRKRSPYNYLQVAYFKINKVAKAVAAAHTFFVANPEHVEMKQNLEYYQMMAGVRESDFADLEARPHMTEFRLGVRFYSEEQPAAAVLHLEKALQEYFVADTECRALCEGPYDYEGYNYLEYNADLFQAMTDHYMQVLSCKQGCVTELASQPGREKPLEDFLPSHFNYLQFAYYNNGNYEKAIECAKTYLLFFPNDEVMNQNLAYYTAVLGEDLARPIEPRKEIQAYRQRSLMEKELLFFSYDVFGIPFVDPDTWTPEEVIPKRLREKQKVERETAARISEEIGNLMKEIETLVEEKAKESAEMSKFIREGGPLVYEGASVTMNSKSLNGSQRVVVDGVLSAEECRELQRLTNAAASAGDGYRGKTSPHTPSETFYGVTVLKALKLGQEGKVPLQSAHLYYNVTEKVRHMMESYFRLEVPLHFSYSHLVCRTAIDEKQEGRSDNSHEVHVDNCILNAEALVCVKEPPAYTFRDYSAILYLNGDFEGGAFYFTELDAKTQTAEVQPQCGRAVGFSSGSENPHGVKAVTKGQRCAIALWFTLDPRHSERERVQADDLVKMLFRTEEVDLLQETSAEQEPTAATSTAGLHAAGKDEL
For B1, the “Km; prolyl 3-hydroxylase activity as release of tritiated water (THO), double reciprocal plot” value is “a Km of 179 µl of substrate per 2 mls reaction volume; also recorded: or 89.5 µl of substrate per ml”.

These data come from patent publication US20050277167.
